From publication PMC3303126 (Nature structural & molecular biology, 2012)

What was measured:
[1] = biological target: T1, ProtA-Sac3 250-563;Thp1;Sem1 (Saccharomyces cerevisiae;Saccharomyces …, UniProt P46674;Q08231;O94742 250-563;1-455;1-89, ||); assay: EMSA
T1 sequence 1: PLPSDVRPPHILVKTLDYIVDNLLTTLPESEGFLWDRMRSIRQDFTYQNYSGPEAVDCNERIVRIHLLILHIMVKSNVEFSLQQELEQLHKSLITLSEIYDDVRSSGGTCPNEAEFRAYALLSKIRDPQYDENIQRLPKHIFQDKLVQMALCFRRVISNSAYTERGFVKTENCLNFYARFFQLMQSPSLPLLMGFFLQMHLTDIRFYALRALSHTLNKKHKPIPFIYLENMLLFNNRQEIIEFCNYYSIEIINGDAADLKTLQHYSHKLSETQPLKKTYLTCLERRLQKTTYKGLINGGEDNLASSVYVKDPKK
T1 sequence 2: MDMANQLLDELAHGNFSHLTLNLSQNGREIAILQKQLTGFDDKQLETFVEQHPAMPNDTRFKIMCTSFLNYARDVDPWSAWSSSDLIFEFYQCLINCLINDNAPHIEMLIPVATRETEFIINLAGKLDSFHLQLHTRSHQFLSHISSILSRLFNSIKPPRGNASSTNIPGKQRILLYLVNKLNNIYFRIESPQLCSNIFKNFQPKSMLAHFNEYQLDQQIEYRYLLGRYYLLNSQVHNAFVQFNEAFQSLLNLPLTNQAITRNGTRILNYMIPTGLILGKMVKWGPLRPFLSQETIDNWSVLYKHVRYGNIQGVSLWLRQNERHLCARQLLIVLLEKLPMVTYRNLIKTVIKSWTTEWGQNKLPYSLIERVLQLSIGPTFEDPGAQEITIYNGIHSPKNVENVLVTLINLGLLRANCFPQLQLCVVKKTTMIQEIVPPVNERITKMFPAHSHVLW
T1 sequence 3: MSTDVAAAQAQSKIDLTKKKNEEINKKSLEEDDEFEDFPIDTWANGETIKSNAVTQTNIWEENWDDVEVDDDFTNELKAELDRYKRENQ

[2] = biological target: T2, Sac3-M (Sac3 250-563);Thp1;Sem1 (Saccharomyces cerevisiae;Saccharomyces …, UniProt P46674;Q08231;O94742 250-563;1-455;1-89, ||); assay: EMSA
T2 sequence 1: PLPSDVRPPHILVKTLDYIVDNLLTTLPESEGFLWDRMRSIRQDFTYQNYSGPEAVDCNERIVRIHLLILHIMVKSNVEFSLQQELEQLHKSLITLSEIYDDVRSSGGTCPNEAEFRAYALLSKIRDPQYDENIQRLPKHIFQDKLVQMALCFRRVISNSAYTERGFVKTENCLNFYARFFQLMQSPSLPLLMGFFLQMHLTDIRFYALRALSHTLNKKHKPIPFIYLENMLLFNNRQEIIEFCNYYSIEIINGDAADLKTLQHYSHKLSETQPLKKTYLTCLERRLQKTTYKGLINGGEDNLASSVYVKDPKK
T2 sequence 2: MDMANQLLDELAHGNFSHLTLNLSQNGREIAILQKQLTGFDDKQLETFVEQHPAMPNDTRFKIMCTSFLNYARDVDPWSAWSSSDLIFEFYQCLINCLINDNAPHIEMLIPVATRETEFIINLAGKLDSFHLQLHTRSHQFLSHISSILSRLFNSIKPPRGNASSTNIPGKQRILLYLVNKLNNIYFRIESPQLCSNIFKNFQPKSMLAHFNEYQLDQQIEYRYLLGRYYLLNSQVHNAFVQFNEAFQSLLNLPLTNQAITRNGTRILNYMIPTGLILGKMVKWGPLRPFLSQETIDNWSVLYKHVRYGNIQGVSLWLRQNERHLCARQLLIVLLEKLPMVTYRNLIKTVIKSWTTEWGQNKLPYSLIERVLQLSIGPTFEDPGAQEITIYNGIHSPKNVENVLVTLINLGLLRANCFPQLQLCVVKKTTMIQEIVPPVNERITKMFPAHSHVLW
T2 sequence 3: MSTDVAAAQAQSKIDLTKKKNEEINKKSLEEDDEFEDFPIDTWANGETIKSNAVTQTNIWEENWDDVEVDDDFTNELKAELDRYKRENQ

[3] = biological target: T3, His-Thp1 (full-length Thp1, coexpressed with Sem1) (S. cerevisiae, UniProt Q08231 1-455); assay: crystal structure
T3 sequence: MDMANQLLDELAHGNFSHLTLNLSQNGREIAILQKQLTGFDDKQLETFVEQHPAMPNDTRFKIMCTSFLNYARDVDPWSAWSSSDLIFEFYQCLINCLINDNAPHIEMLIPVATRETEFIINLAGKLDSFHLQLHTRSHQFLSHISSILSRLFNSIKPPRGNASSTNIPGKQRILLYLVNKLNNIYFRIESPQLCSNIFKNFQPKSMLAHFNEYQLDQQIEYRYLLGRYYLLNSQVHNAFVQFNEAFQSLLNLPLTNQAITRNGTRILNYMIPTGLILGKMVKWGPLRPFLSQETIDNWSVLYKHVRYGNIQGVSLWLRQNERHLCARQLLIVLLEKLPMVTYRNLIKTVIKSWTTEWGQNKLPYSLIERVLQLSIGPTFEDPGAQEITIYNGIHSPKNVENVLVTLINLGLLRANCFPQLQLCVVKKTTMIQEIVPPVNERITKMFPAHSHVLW

[4] = biological target: T2, Sac3-M (Sac3 250-563);Thp1;Sem1; assay: EMSA; remark: listed apart in the source
[5] = biological target: T3, His-Thp1 (full-length Thp1, coexpressed …); assay: pull-down

B1: polyA25 RNA (ssRNA)
RNA: AAAAAAAAAAAAAAAAAAAAAAAAA
[1]
  binding result: binds
[2]
  binding result: binds

B2: Sac3 residues 250-563 (Sac3-M), as crystallised (domain or fragment)
chain: PLPSDVRPPHILVKTLDYIVDNLLTTLPESEGFLWDRMRSIRQDFTYQNYSGPEAVDCNERIVRIHLLILHIMVKSNVEFSLQQELEQLHKSLITLSEIYDDVRSSGGTCPNEAEFRAYALLSKIRDPQYDENIQRLPKHIFQDKLVQMALCFRRVISNSAYTERGFVKTENCLNFYARFFQLMQSPSLPLLMGFFLQMHLTDIRFYALRALSHTLNKKHKPIPFIYLENMLLFNNRQEIIEFCNYYSIEIINGDAADLKTLQHYSHKLSETQPLKKTYLTCLERRLQKTTYKGLINGGEDNLASSVYVKDPKK
[3]
  binding result: binds

B3: polyU25 RNA (ssRNA)
RNA: UUUUUUUUUUUUUUUUUUUUUUUUU
[4]
  Kd: 175 nM

B4: Sem1 (full length, bacterially expressed) (natural protein)
chain: MSTDVAAAQAQSKIDLTKKKNEEINKKSLEEDDEFEDFPIDTWANGETIKSNAVTQTNIWEENWDDVEVDDDFTNELKAELDRYKRENQ
[5]
  binding result: binds
